The DeepSol protein solubility set

assay: soluble on expression in E. coli; label from the status in PepcDB or PDB records

Sequence	soluble on expression in E. coli
MGSDKIHHHHHHMKQYLRLRAFKAISFDLDDTLYHNTPYLQLATDKFFAFLNQNYPKTQTLHAQGWLTIKHDLFDLHPELKHDTSAARYAMVHDGLMSLGYKESEASEGAQKSMACFHFYRSDFTLDDKVLNLLKQLAESVTLVGISNGNVDASRIGLSESLAFVQHPGHGVKMKPHGDMFELACQRLNISPAELLHVGDHQMADVSGARRAGCQSVWFNPEKHPLTRRTGSILPHVELDDLNKLLNLV	not soluble
MKPSLRIYRYPPPPSQRTPCALTIGNFDGVHLGHQAILARVRQEARARGLVPAVMTFEPHPREYFATLNRRPELAPTRISGLRDKLQALAAAGIEQVAVERFDARLAEMSANAFIEDLLVAGLQTRWLLVGEDFRYGHKRSGDIDLLREAGLAHGFEVCTLADITDRQGHRISSSEVRTALAVGDLDRAAQLLGQPFHISGHVIHGRKLGRELGFPTMNLRVAPRCATRSGIYVVRVLGLQDRPLPAVASLGVRPTVEDRGRVLLEAHLLDESLDAYGKLVRVEFLHKLRDEEKFADLPSLTAAIAQDAQNARAYFAVHGL	not soluble
MDYFDRCYIINLPERRDRRREMEKELERAGMPPMPGRVEFFPAIRPESAGPFPSIGAHGCFLSHLGILRAAKAQGLRNVLILEDDLTFAAQFPEVEEKLVGELRETPWDFAFFGHVLEFPEVPPDRAHLEPYAGPIVTAHFYAVNGAVIDRLLGFLDALLQRPPGHPDGGPMHVDGAYSTFRQQNPDVVTLVAVPSQGWQRSSRSDIAPNRWYDRWPLVRSLVALARRGKTWLRGNRRHAAALEHHHHHH	not soluble
MSLRCPTCQYNGTRVVDSRPADDGNSIRRRRECEKCGFRFTTFEKVEESPLIVVKKDGAREEFAREKVRRGLIRACEKRPVSAEQIEEIVNEVERELRNIGDSEIASDLIGEKVMNKLANLDEVAYVRFASVYRQFKDISVFVEELKDLMEKNKEGHHHHHH	soluble
MRGSHHHHHHGMASMAVSESQLKKMVSKYKYRDLTVRETVNVITLYKDLKPVLDSYVFNDGSSRELMNLTGTIPVPYRGNTYNIPICLWLLDTYPYNPPICFVKPTSSMTIKTGKHVDANGKIYLPYLHEWKHPQSDLLGLIQVMIVVFGDEPPVFSRP	soluble
MKKLKMASCALVAGLMFSGLTPNAFAEDKISDVKSQINTQNDTLHKQQQERDELQKQMNDLNKTIQGLDKSVQENAAKLDETTKKVADTEQLIEKKNKDIAELQTKIAKREELLRKRLVALQEQPNTNVVTEVLVNSKNVADLVDRLTSVSKILESDEDIMKTQQEDQANVKKDVETVKTKQKELKEAQAQIETAKKELDAEKAKKATAVNDLSGKMDTVVTSMTSTESQLKDLEKQALQLQRIAEQEAQEKAAQEAAAQKQAEQAAKDAQAQPAQAAPAQPAAPANNGGQAQKEEPKKEEPKKEAPKKEDKKPEPTPGPAPAPGVIGKAQQYLGLPYVWGSASPSNGGFDCSGFISYVFGVGRQDVNGYWHSVSKVSSPQPGDLVFFQNTYKNGPSHIGIYVGNGQMIHAGDKGIAYSSLSSSYNQKHFLGYGRF	not soluble
MGSDKIHHHHHHMEIFDYVILGAGLGGLSAAACLTRQGYRVVVLEQHYLPGGCCHTFDYGEYHFCADVHYISQCGSGQTITQFLDYIHQNVPFNSLDSDCIDRVITPEADFKIPLGWENLRSRLLSTFPEEAGAINHYCNEIQQLHQEIRNLVQEVRWYDQKLSDWLKLPKYLNLFWKRNWTLQDLYNHVGLSPKLQAVLAGQSGDYALPPQEIALLTHTSLVWDYSEGAYYPKHHFKHLVDTIADVITAGGGVIKYSTPVSHIQVSNHSVHSVLADGNSYRASKAYISDLDPKLTVELMHDITALSQKEYKRLTNYQYSASAFNIYLGLDSRFDPQRYGIGNWNVWYYPTGDLNREYQQQLEGDFSQPWIFLSCPTMKSSEPGMGPEGHHVLEIATVCSYEPFEHLYKSNPKAYKAKKREFYQQIMTSVRDLIPDVDKYARMKVYGTPTTSEFYLGQPQGNIYGAKLVPKQVGLNRLGYMTELPNLFLVGASAGYPSVPGVIGNGMQVVELLTGQSVWHKAAERPQSLVAIG	not soluble
MAQILPIRFQEHLQLQNLGINPANIGFSTLTMESDKFICIREKVGEQAQVVIIDMNDPSNPIRRPISADSAIMNPASKVIALKAGKTLQIFNIEMKSKMKAHTMTDDVTFWKWISLNTVALVTDNAVYHWSMEGESQPVKMFDRHSSLAGCQIINYRTDAKQKWLLLTGISAQQNRVVGAMQLYSVDRKVSQPIEGHAASFAQFKMEGNAEESTLFCFAVRGQAGGKLHIIEVGTPPTGNQPFPKKAVDVFFPPEAQNDFPVAMQISEKHDVVFLITKYGYIHLYDLETGTCIYMNRISGETIFVTAPHEATAGIIGVNRKGQVLSVCVEEENIIPYITNVLQNPDLALRMAVRNNLAGAEEL	soluble
MTEKLKNSKEVIAYIAECFPKCFTLEGEAKPLKIGIFQDLAERLNEDEKVSKTQLRAALRQYTSSWRYLHGVKPGAVRVDLDGNPCGELEEEHVEHAKATLAESKAKVQARRKEQAQKAREEGKAKAKPAANKKPQQPRRTNKPKVQKPTK	not soluble
QVQLQQPGTELVKPGASVKLSCKASGYTFTGFWIHWVKQRPGQGLEWIGHINPGNGGTNYNEKFKRMATLTVDKSSSTAYMQLSSLTSEDSAVYYCARSYSNYVRAMDYWGQGTSVTVSSAKTTAPSVYPLVPVCGGTTGSSVTLGCLVKGYFPEPVTLTWNSGSLSSGVHTFPALLQSGLYTLSSSVTVTSNTWPSQTITCNVAHPASSTKVDKKIEP	soluble
MSLKRIRPLDPDVVNKIAAGEIIVAPMHALKELIENAVDAGSTSIEVLVKDGGMKLLQITDNGHGIDRDDLPILCERFTTSKLKQFEDLSSIGTYGFRGEALASISHIAHLTVTTKTAGSSCAWRAHYSDGKLVPPKPGQSAEPKATAGRGGTQITVEDLFYNVPTRRRAFRSASEEYAKILDVVGRYAVHCSGVAFSCRKHGESGAGISTPAAANTTDRIRQIHGSAVANELVEFQVEDSKLGFRSSGLVTNANYHVKRTVIMLFINHRSVESTAIKRAVEQTYSSFLPKGGHPFVYIDLEIEPHRVDVNVHPTKREVNFLNEDDIIESICSEIRSKLAQEGHHHHHH	soluble
MTMHETTDRLFEIAKEQGVLKPADIAERLNISQQALKNWESRGIAAKALPEVAKAFGVSETWLRTGEGSRTAPVLIDPDLPHEVKDIHRPMTWSSNDPLPDDDYVFVPYLKESCFKGGVGTYEIPDYNGYRLPFGKSTLKRKGINPDNVFCCTLTGDSMEEKIAEDAAIAVDTGETAIRDGKIYAFAQDGMFRVKYLIRQPGNSVLIRSHNSGFYGDENAPLDSLTVIGRVFWWSVLD	not soluble
EQLAGIDNLRDLDPTGALATKLEAIAPTVSTYDSYAGRLISEYGLLLPVEPSSRLISQTELFQIAHSIVSAHTGALNTSNSPNTVTSTLISLVSEMDNHMVSPTDIEEESAAFLAMIEDVEATSKRAPSKEVYKWRDTQVLRNELLPLVQQLKTHLADNHLMTFGEQMSLAARLAAENPQVGASQRNRYQIIMLDEYQDTGHAQRVLLKSLFAGTAVTAVGDPMQSIYGWRGATAANLERFLTDFGSNGSPATKKELTVSFRNPPEVLDLANRVSRELLGVPEDPRRPVQPLEPGPAALNGIVRLGFFPSMDEERSYVADHLAQAYEQHDGDHPFTAAVLVRKRKHSAAIALELQQRGVPVE	not soluble
MIKLSSITAHILDIWHRRNSRSYIAHLRSLGIRIGDGCIFRDPLTTRIDVSRPALVSIGSNVDMNTYFQILTHDWASFVFRNKYHDFVNSSGRVEIGSNIYIGTNVIVLRGVTIGDNCVIGAGSVVTHDIPANSVAVGAPCRVVCSLEHHHHHH	soluble
MSLATAPPFERIETTGLQTLTPRELDELIESVAAVDNPTPLVDDESFLRRVTLDAIGRVPTEQEWKTFMEDPASNKRAKLIDRLLASEEYGANWANYWSDVFSYRTPSPELTFLSYDTPKHWLAEQLNNGVGWDQVSYQMLTGVGKVADNPAAFYVGYHQADVSRLAGESTRIFLGAQIQCAECHDHPFVDIPQERFHQMAAFFVRTKAELPWNDEGHHHHHH	soluble
MNTVIDFSAGVPPAVEVKAAGHIGVMRYISPPRLSWMTAKPATRPQIDRCRSAGVDVGFVWQYGGADNPDTMRGRTGGHADATSAQAKLIELGCPHHPVFFAVDFDISLDQWNATAVHYFKAACEVLGRDRVGIYGHSRVISWAVEDQVIADLGGGKHLAWQTPAWSMGERATEAVLYQGAANVKGPAGINIDVNEVLHHEWGQHPVGETRLEKSQEMELAMKPNPNHRGDPLFLPDVLKAFGVKVQEWDGWRDRGHGDFTVIQGVFAHHTGTDKDIPGYIADHPELGLCSQIHLNRDGTAVIVGAGIAYHAGRGSYPGWPTDNANQVAIGIEAASSGTSPWPPAQLDAYYRTCAAILWYLGKPATPQTLLGHKEYSGAAQGKWDPGGIDMNDFRRNVQHYIDNPPFLAADAAHITKEEDPMIQSLINPAKKFAQSTLISIVDATCWQILVLAKAIAKKQGLDPDQILADAITADREGK	not soluble
QIKSQGCRISRTFLLICSRGRKQRMKDSENKGASSPDMEPSYGGGLFDMVKGGAGRLFSNLKDNLKDTLKDTSSRVIQSVTSYTKGDLDFTYVTSRIIVMSFPLDNVDIGFRNQVDDIRSFLDSRHLDHYTVYNLSPKSYRTAKFHSRVSECSWPIRQAPSLHNLFAVCRNMYNWLLQNPKNVCVVHCLDGRAASSILVGAMFIFCNLYSTPGPAIRLLYAKRPGIGLSPSHRRYLGYMCDLLADKPYRPHFKPLTIKSITVSPIPFFNKQRNGCRPYCDVLIGETKIYSTCTDFERMKEYRVQDGKIFIPLNITVQGDVVVSMYHLRSTIGSRLQAKVTNTQIFQLQFHTGFIPLDTTVLKFTKPELDACDVPEKYPQLFQVTLDVELQPHDKVIDLTPPWEHYCTKDVNPSILFSSHQEHQDTLALGGQAPIDIPPDNPRHYGQSGFFASLCWQDQKSEKSFCEEDHAALVNQESEQSDDELLTLSSPHGNANGDKPHGVKKPSKKQQEPAAPPPPEDVDLLGLEGSAMSNSFSPPAAPPTNSELLSDLFGGGGAAGPTQAGQSGVEDVFHPSGPASTQSTPRRSATSTSASPTLRVGEGATFDPFGAPSKPSGQDLLGSFLNTSSASSDPFLQPTRSPSPTVHASSTPAVNIQPDVSGGWDWHAKPGGFGMGSKSAATSPTGSSHGTPTHQSKPQTLDPFADLGTLGSSSFASKPTTPTGLGGGFPPLSSPQKASPQPMGGGWQQGGAYNWQQPQPKPQPSMPHSSPQNRPNYNVSFSAMPGGQNERGKGSSNLEGKQKAADFEDLLSGQGFNAHKDKKGPRTIAEMRKEEMAKEMDPEKLKILEWIEGKERNIRALLSTMHTVLWAGETKWKPVGMADLVTPEQVKKVYRKAVLVVHPDKATGQPYEQYAKMIFMELNDAWSEFENQGQKPLY	soluble
HLDAIQNFGAMDILCTDKTGTLTQDKIVLENHTDVSGKVCERVLHAAWLNSHYQTGLKNLLDTAVLEGVELDAARGLAERWQKVDEIPFDFERRRMSVVVKEDDAAHQLICKGALQEILNVSTQVRYNGDIVPLDDTMLRRIRRVTDTLNRQGLRVVAVATKYLPAREGDYQRADESDLILEGYIAFLDP	not soluble
MAMKVKEVANLVGISVRTLHHYDEIGLLTPDETTESGYRLYSNENLEMLQQILFFKELGFPLKKIKEIIMSPSFDRKEALQLHKKMLLEKRARLDKVIATIDKTIQHTKGEIEMTNKEKFKGFDFSHNPYEEEARERWGDAAVDKANEYAKGMSKEKQEEFNAIYRNLAALRHGAPDSKEAQEAIKVWYDYLQNFSHYSLDAFKGLGQMYVADERFTKNIDKFGEGLAQFMCDAMEVYADRNK	not soluble
